Test results from publication PMC4525488, “Structure-based Mechanistic Insights into Terminal Amide Synthase in Nosiheptide-Represented Thiopeptides Biosynthesis” (Scientific Reports, 2015).

B3: truncated NosA_(1-111) variant (domain or fragment, UniProt C6FX40 1-111, looked up)
chain: MTEHPAQQLYCTVVLWDLSRSAATVASLRAYLRDHAVDAYTTVPGLRQKTWISSTGPEGEQWGAVYLWDSPEAAYGRPPGVSKVVELIGYRPTERRYYSVEAATEGPAAAA
notes: NosA, terminal amide synthase of nosiheptide biosynthesis

Experiments:
[1] = target: the molecule itself; experiment: SEC; Superdex 75 10/300 GL, 50 mM Tris-HCl pH 7.5, 50 mM NaCl; retention compared with gel filtration markers of 44 kDa and 17 kDa
[2] = target: the molecule itself; experiment: crystal structure; Se-Met NosA_(1-111), sitting-drop vapor diffusion at 293 K; 0.02 M magnesium chloride hexahydrate, 0.1 M HEPES pH 6.0-9.0, 22% w/v polyacrylic acid 5100; SAD, 2.40 Å
[3] = target: B3; experiment: ITC; ITC-200, 20 mM Tris-HCl, 150 mM NaCl, pH 7.0, 298 K; who was in the syringe is not told; settings: both partners purified

B1: full-length NosA (wild type) (enzyme, UniProt C6FX40 1-151, looked up)
chain: MTEHPAQQLYCTVVLWDLSRSAATVASLRAYLRDHAVDAYTTVPGLRQKTWISSTGPEGEQWGAVYLWDSPEAAYGRPPGVSKVVELIGYRPTERRYYSVEAATEGPAAAAAPFGKGLGLAFDPASPEPLTRPQEFVPPGADAFIPSRPPA
notes: NosA, terminal amide synthase of nosiheptide biosynthesis; Cloned in pET28a by NheI and HindIII; also called WT NosA; WT full-length NosA
stoichiometry N [1]: 2

B2: selenomethionine NosA_(1-111) (domain or fragment, UniProt C6FX40 1-111, looked up)
chain: MTEHPAQQLYCTVVLWDLSRSAATVASLRAYLRDHAVDAYTTVPGLRQKTWISSTGPEGEQWGAVYLWDSPEAAYGRPPGVSKVVELIGYRPTERRYYSVEAATEGPAAAA
modifications: selenomethionine in place of methionine (one Met residue at the N-terminal sequence)
notes: NosA, terminal amide synthase of nosiheptide biosynthesis; the crystallised form
binding result [2]: binds

B3
stoichiometry N [1]: 2

B4: C-terminal NosA_(112-151) peptide (peptide, UniProt C6FX40 112-151, looked up)
chain: APFGKGLGLAFDPASPEPLTRPQEFVPPGADAFIPSRPPA
notes: NosA, terminal amide synthase of nosiheptide biosynthesis; Cloned in the pSMT3 vector; source: 15N-labelled in M9 medium for NMR
Kd [3]: 2.4 ± 1.2 mM
